Some results are limits rather than exact numbers.

The target of assay [1] is salt stripped chicken erythrocyte mononucleosomes (chicken (endogenous in erythrocytes)). As to the kind of experiment: native gel or EMSA. On the technique in general: A gel shift assay detects complexes by their altered migration in electrophoresis.
For another assay, the target named is HMGN2 (UniProt P05204). Briefly: co-IP.
The next assay deals with HMGN1 (UniProt P05114). As to the kind of experiment: co-IP.

Take “HMGN2 (from UniProt P05204 1-90) (natural protein)”: in assay [1], the H3K27ac level in HA complexes over LA MNs (dot blot) came out at 1.5 times.

Turning to “salt-stripped oligonucleosomes from mouse embryonic fibroblasts (complex)”, in the assay with HMGN2, the H3K27ac level in HMGN-bound ON over input ON (dot blot) is > 3 fold. In the assay with HMGN1, the H3K27ac level in HMGN-bound ON over input ON (dot blot) was > 3 fold and the H3K27ac signal in HMGN1-bound over input nucleosomes (Western) turned out to be 2.7 fold.

B1: HMGN1 (natural protein)
chain: MPKRKVSSAEGAAKEEPKRRSARLSAKPPAKVEAKPKKAAAKDKSSDKKVQTKGKRGAKGKQAEVANQETKEDLPAENGETKTEESPASDEAGEKEAKSD
In the case of B1, in assay [1], the H3K27ac level in HA complexes over LA MNs (dot blot) is 1.5 times, the H3K27ac level in HA over LA fraction (Western) is 2 fold, the percent of total MNs not shifted (LA fraction) at HMGN:MN ratio 2.0 was 12% and the percent of total MNs shifted (HA fraction) at HMGN1:MN ratio 0.2 was determined as 9%.

The values are drawn from doi:10.1101/2021.05.03.442466.
